Earlier results on 1 substance are cited in paper PMC12153800.

The target of the series is FZD10 (Homo sapiens) (UniProt Q9ULW2). Put plainly: NanoBiT/BRET.
FZD10 (Homo sapiens), sequence (Q9ULW2 21-581): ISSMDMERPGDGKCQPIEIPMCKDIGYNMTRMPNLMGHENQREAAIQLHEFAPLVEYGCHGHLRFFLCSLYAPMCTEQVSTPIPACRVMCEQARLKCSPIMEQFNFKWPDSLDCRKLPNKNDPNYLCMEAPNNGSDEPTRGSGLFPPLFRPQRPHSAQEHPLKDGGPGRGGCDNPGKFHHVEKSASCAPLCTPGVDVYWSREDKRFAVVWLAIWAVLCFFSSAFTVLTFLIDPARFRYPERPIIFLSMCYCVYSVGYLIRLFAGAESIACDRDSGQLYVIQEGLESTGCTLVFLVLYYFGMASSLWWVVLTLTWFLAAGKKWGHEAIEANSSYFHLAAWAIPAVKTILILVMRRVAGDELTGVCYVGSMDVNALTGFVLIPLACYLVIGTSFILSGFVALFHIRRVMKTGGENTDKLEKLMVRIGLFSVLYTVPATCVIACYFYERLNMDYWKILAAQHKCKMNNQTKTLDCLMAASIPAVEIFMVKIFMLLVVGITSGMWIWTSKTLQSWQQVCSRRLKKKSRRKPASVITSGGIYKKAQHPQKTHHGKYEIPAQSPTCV

Wnt3a, sequence (P56704 19-352): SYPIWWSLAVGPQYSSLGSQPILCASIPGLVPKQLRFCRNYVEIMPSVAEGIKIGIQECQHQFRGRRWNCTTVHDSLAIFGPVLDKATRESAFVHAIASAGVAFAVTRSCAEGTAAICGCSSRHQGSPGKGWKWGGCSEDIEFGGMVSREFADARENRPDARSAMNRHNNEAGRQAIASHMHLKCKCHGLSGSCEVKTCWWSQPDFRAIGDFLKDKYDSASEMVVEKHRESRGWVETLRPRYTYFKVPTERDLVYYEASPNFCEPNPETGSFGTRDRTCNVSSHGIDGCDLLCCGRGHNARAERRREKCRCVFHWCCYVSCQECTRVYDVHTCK

On to Wnt3a (from UniProt P56704), for which the equilibrium dissociation constant (Kd) was 4.3 nM.

By Kd is commonly meant the concentration at which binding is half-saturated.
